In publication PMC5758568, “Cryo EM structure of intact rotary H^+-ATPase/synthase from Thermus thermophilus” (Nature Communications, 2018):
Values belong to the molecule of their own block, whether it stands above or below them.

B2: D-subunit of the V/A-ATPase from Thermus thermophilus (natural protein, UniProt O87880 1-223, looked up)
chain: MSQVSPTRMNLLQRRGQLRLAQKGVDLLKKKRDALVAEFFGLVREAMEARKALDQAAKEAYAALLLAQAFDGPEVVAGAALGVPPLEGVEAEVENVWGSKVPRLKATFPDGALLSPVGTPAYTLEASRAFRRYAEALIRVANTETRLKKIGEEIKKTTRRVNALEQVVIPGIRAQIRFIQQVLEQREREDTFRLKRIKGKIEAREAEEEGGRPNPQVEIGAGL
notes: V/A-type ATPase D-subunit (central rotor shaft), Thermus thermophilus; native subunit in the isolated whole enzyme; One copy in the enzyme (D1F1d1c12 rotor); also called subunit D; V1-DF (with F)

Key:
Assay in all cases: cryo-EM structure; single particle cryo-EM of the whole V/A-ATPase in TE buffer (20 mM Tris-HCl pH 8.0, 0.1 mM EDTA) with 0.003% LMNG and 100 mM NaCl, no nucleotide added; three rotational states (5.0, 6.7, 7.5 Å), focused V1EGd map of state1 4.7 Å; crystal structures and homology models fitted by MDFF
[1] = target: c-subunit (subunit L) of the V/A-ATPase from Thermus thermophilus, with His3 tag on the C-terminus (Thermus thermophilus)
[2] = target: B2; settings: both partners purified
[3] = target: T1, d-subunit (subunit C) of the V/A-ATPase from Thermus thermophilus (Thermus thermophilus, UniProt P74902 1-323); settings: both partners purified
T1 construct: native subunit in the isolated whole enzyme; One copy in the enzyme; also called Vo-d
T1 sequence: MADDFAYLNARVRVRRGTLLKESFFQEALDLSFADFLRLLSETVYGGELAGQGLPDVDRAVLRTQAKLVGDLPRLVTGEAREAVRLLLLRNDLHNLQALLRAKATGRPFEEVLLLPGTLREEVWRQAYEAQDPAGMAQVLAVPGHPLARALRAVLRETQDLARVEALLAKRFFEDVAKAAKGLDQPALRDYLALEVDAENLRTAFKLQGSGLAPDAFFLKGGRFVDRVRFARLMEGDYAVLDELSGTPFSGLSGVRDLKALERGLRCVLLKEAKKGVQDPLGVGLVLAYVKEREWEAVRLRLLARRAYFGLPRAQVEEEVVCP

[4] = target: T2, B-subunit of the V/A-ATPase from Thermus thermophilus (Thermus thermophilus, UniProt Q56404 1-478); settings: both partners purified
T2 construct: V/A-type ATPase B-subunit (V1 part), Thermus thermophilus; native subunit in the isolated whole enzyme; Three copies in the enzyme (A3B3); also called subunit B
T2 sequence (looked up): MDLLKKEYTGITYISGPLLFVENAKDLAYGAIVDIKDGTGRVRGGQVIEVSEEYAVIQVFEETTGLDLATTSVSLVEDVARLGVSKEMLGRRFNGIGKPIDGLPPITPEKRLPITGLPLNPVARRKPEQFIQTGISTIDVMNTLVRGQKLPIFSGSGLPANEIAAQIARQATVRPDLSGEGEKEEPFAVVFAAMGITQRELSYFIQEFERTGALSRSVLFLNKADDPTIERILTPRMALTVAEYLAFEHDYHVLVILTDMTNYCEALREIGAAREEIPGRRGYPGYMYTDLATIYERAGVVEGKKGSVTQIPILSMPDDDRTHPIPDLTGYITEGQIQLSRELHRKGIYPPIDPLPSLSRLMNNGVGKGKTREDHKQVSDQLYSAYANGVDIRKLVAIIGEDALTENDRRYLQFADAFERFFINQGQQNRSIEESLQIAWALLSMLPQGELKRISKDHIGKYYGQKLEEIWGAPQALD

binding result [2]: binds
B1: F-subunit of the V/A-ATPase from Thermus thermophilus (natural protein)
chain: MAVIADPETAQGFRLAGLEGYGASSAEEAQSLLETLVERGGYALVAVDEALLPDPERAVERLMRGRDLPVLLPIAGLKEAFQGHDVEGYMRELVRKTIGFDIKL
notes: V/A-type ATPase F-subunit (central rotor), Thermus thermophilus; native subunit in the isolated whole enzyme; One copy in the enzyme; also called subunit F; V1-DF (with D)

binding result [4]: binds
B3: E-subunit of the V/A-ATPase from Thermus thermophilus (natural protein)
chain: MSKLEAILSQEVEAEIQALLQEAEAKAEAVKREAEEKAKALLQARERALEAQYRAALRRAESAGELLVATARTQARGEVLEEVRRRVREALEALPQKPEWPEVVRKLALEALEALPGAKALVANPEDLPHLEALARERGVELQAEPALRLGVRAVGAEGKTQVENSLLARLDRAWDALSSKVAQALWG
notes: V/A-type ATPase E-subunit (peripheral stalk), Thermus thermophilus; native subunit in the isolated whole enzyme; Two copies in the enzyme (two EG stalks); also called subunit E; EG stalk (with G)

Further lines, the molecule ahead of its results:

Molecule: c-subunit (subunit L) of the V/A-ATPase from Thermus thermophilus, with His3 tag on the C-terminus (natural protein)
stoichiometry N [1]: 12

Molecule: B2
binding result [3]: binds
